From paper PMC12058022, “Promiscuous structural cross-compatibilities between major shell components of Klebsiella pneumoniae bacterial microcompartments” (PLOS One, 2025) come the findings set out here.

What all share (experiment): SEC; SEC-HPLC of purified individual His6-tagged BMC-H (urea-purified fractions; EutM, CmcB and EutK also from the soluble fraction), Beckman Ultraspherogel SEC2000, 20 mM Tris-HCl, 300 mM NaCl, pH 7; size from calibration standards
On the technique in general: SEC sorts molecules by how far they enter the pores of the column.

For data set [1], the target named is CmcE, N-terminally His6-tagged (Klebsiella pneumoniae (strain 342)).
In data set [2] the target is CmcE, C-terminally His6-tagged (Klebsiella pneumoniae (strain 342)).
Data set [3] has as its target EutS, His6-tagged (Klebsiella pneumoniae (strain 342)).
Data set [4] deals with EutM, His6-tagged (Klebsiella pneumoniae (strain 342)).
Data set [5] addresses CmcB, His6-tagged (Klebsiella pneumoniae (strain 342)).
The target of data set [6] is CmcA, His6-tagged (Klebsiella pneumoniae (strain 342)).
The target of data set [7] is PduU, N-terminally His6-tagged (Klebsiella pneumoniae (strain 342)) (UniProt A6TDE7).
In data set [8] the target is CmcC, His6-tagged (Klebsiella pneumoniae (strain 342)).
Data set [9] concerns the molecule itself.

For orientation: stoichiometry N means the number of molecules, sites or subunits per partner or assembly. In data set [1], “CmcE, N-terminally His6-tagged (natural protein)” displayed a stoichiometry N of 6.

“CmcE, C-terminally His6-tagged (natural protein)”: the stoichiometry N in [2] was 6.

For EutS, His6-tagged (natural protein), in data set [3], the stoichiometry N amounted to 6.

The molecule “EutM, His6-tagged (from UniProt A0A377ZA59 1-64) (natural protein)” yielded a stoichiometry N in data set [4] of 6.

As for CmcB, His6-tagged (natural protein), in [5], the stoichiometry N is 6.

For the molecule CmcA, His6-tagged (natural protein), the stoichiometry N in [6] was 6.

For “PduU, N-terminally His6-tagged (from UniProt A6TDE7 1-116) (natural protein)”, in data set [7], the stoichiometry N amounted to 6.

In the case of CmcC, His6-tagged (natural protein), the stoichiometry N in [8] was 6.

B1: PduJ, His6-tagged (natural protein, Klebsiella pneumoniae (strain 342), UniProt A6TDD7 1-91, looked up)
chain: MNNALGLVETKGLVGAIEAADAMVKSANVQLIGYEKIGSGLITVMVRGDVGAVKAAVDAGSAAASVVGEVKSSHVIPRPHSDVEAILPKSV
notes: PduJ, canonical BMC-H shell protein of the PDU microcompartment; theoretical monomer MW 9.2 kDa; not shown: His6, C-terminal, kept
Turning to B1, the “stoichiometry N” value in data set [9] was found to be 6.

B2: PduA, His6-tagged (natural protein, Klebsiella pneumoniae (strain 342), UniProt A0ACD7U6D6 1-94, looked up)
chain: MQQEALGMVETKGLTAAIEAADAMVKSANVLLVGYERIGSGLVTVIVRGDVGAVKAATDAGAAAARHVGEVKAVHVIPRPHTDVEKILPKGNSQ
notes: PduA, canonical BMC-H shell protein of the PDU microcompartment; theoretical monomer MW 9.8 kDa; source: also co-expressed with a FLAG-tagged partner, in soluble lysate fraction and co-purified; not shown: His6, C-terminal, kept
In the case of B2, the “stoichiometry N” value in [9] was found to be 6.
